B1: S2 (dsDNA)
DNA 1: GGGCACAGACATTTTAATCA
DNA 2: TGATTAAAATGTCTGTGCCC
B2: S2M (dsDNA)
DNA 1: GGGCACAGAGGGTTTAATCA
DNA 2: TGATTAAACCCTCTGTGCCC
B3: S5 (dsDNA)
DNA 1: GCTTTCTTCCATCTTGAAAA
DNA 2: TTTTCAAGATGGAAGAAAGC
B4: S5M (dsDNA)
DNA 1: GCTTTCTTCGGGCTTGAAAA
DNA 2: TTTTCAAGCCCGAAGAAAGC
B5: S4M (dsDNA)
DNA 1: TGGTGCCGAGGGTTTTTTTC
DNA 2: GAAAAAAACCCTCGGCACCA
B6: CDC6 probe (dsDNA)
DNA 1: CGCTCCCCGGCCATCTTGGCGGCTGGT
DNA 2: ACCAGCCGCCAAGATGGCCGGGGAGCG
B7: S4 (dsDNA)
DNA 1: TGGTGCCGACATTTTTTTTC
DNA 2: GAAAAAAAATGTCGGCACCA
B8: S3 (dsDNA)
DNA 1: CTTGTCTGCCATTGTATCTT
DNA 2: AAGATACAATGGCAGACAAG
B9: S1 (dsDNA)
DNA 1: ATGATAAGCCATGATCACAC
DNA 2: GTGTGATCATGGCTTATCAT

Tests used:
[1] = biological target: T1, His6-YY1 (UniProt P25490 1-414); experiment: EMSA
T1 sequence (P25490 whole entry): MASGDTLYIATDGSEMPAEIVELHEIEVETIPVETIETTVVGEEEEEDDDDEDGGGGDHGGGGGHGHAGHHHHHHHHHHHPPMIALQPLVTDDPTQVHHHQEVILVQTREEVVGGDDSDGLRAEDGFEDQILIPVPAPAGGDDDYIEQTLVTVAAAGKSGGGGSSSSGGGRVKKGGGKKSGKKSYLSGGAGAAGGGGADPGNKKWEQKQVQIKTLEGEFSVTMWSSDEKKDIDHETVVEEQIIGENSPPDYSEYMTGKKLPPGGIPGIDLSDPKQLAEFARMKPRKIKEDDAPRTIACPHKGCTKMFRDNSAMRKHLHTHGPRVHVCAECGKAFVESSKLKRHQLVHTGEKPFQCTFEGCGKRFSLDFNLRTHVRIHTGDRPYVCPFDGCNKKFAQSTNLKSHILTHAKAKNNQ

[2] = biological target: T1, His6-YY1; experiment: competition

Binder | binding result [1] | binding result [2]
B1 | binds | 
B2 |  | no binding
B3 |  | binds
B4 |  | no binding
B5 |  | no binding
B6 | binds | 
B7 |  | binds
B8 |  | no binding
B9 |  | no binding
